Experimental data as given in patent CN116178530A (SHANGHAI JUNSHI BIOSCIENCES CO LTD; JUNMENG BIOSCIENCES CO …, dated 2023).

Molecular target: SARS-CoV-2的野生型RBD蛋白(货号SPD-C82E8，ACRO Biosystems) (SARS-CoV-2, UniProt P0DTC2 319-537)

B1: JS5-10 (antibody, human IgG1, kappa, L234A L235A, V domains shown)
VH: EVQLLESGGGLVQPGGSLRLSCAASGFTFSSYAMSWVRQAPGKGLEWVSAIVGSGGSTYYADSVKGRFIISRDNSKNTLYLQMNSLRAEDTAVYYCAKSLIYGHYDILTGAYYFDYWGQGTLVTVSS
VL: DIQMTQSPSSVSASVGDRVTIPCRASQGIGNWLAWYQQKPGKAPKLLIYAASSLQSGVPSRFSGSGSGTDFTLTISSLQPEDFATYYCQQANSFPPFGQGTRLEIKR
Question: B1 was tested. Which Kd did it give?
Answer: Its Kd is 2.04 nM.

Question: And the koff?
Answer: Its koff is 0.000215 s⁻¹.

Question: And the kon?
Answer: The kon was 106000 M⁻¹ s⁻¹.
